For assay [1], the target named is full length GPVI on transfected DT40 cells (with FcR-γ chain) (UniProt Q9HCN6). The assay is described as follows: cell-based or functional assay.
Assay [2] deals with T1, GPVI on human washed platelets (human, UniProt Q9HCN6 21-339).
T1 sequence (looked up): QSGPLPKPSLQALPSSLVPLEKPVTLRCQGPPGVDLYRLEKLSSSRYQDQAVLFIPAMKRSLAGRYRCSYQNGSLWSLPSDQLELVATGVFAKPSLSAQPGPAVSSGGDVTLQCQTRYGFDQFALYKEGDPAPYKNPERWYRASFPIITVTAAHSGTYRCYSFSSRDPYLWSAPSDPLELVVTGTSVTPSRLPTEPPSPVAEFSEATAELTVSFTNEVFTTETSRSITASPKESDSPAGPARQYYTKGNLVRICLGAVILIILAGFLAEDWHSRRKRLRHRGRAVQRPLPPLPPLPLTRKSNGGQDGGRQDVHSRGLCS
Put plainly: cell-based or functional assay.

The target of assay [3] is T2, recombinant GPVI-Fc (dimeric; D1 and D2 domains of GPVI fused to the Fc domain from IgG) (human, UniProt Q9HCN6 22-203).
T2 construct: range 22-203; also called GPVI-Fcγ; dimeric GPVI; not shown: Factor Xa cleavable junction and Fc domain from IgG (Sigplg+ vector)
T2 sequence (looked up): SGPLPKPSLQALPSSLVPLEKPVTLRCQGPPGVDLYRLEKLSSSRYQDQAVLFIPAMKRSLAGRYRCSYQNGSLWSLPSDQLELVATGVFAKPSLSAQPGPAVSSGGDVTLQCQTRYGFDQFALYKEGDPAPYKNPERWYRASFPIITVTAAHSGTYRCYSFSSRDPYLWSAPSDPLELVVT
The assay is described as follows: solid-phase binding assay, displacement of GPVI-Fc (100 nM) from a collagen surface.

The target in assay [4] is T3, full length GPVI on transfected DT40 cells (with FcR-γ chain) (UniProt Q9HCN6 21-339).
T3 sequence (looked up): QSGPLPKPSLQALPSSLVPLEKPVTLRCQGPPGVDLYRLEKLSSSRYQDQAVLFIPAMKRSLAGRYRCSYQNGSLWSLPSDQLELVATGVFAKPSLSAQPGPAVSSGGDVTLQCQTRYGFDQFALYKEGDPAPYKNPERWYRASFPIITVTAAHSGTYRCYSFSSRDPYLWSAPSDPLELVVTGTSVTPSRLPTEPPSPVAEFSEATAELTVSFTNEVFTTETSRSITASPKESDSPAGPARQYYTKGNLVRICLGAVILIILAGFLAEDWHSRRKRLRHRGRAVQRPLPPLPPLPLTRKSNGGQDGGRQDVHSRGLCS
The assay is described as follows: cell-based or functional assay.

Assay [5] has as its target T2, recombinant GPVI-Fc (dimeric; D1 and D2 …). Put plainly: solid-phase binding assay: GPVI-Fc coated surface, nanobody 100 nM per the legend (1 µM per paragraph 122), anti-His HRP, Fc-surface signal subtracted, normalised to Nb35 [cont) b]. As to the method: FIG. 1. […] Results were plotted as a percentage of total signalling in the presence of collagen only. Dotted lines represent 100, 60 and 20% signalling levels. Data represent mean values of three experiments performed in triplicate±standard deviation. b) Surface binding assay of one nanobody (100 nM) from each family binding to a GPVI-Fc coated-surface. All the binding results have been normalised to Nb35 which gave the highest readout. Binding of each nanobody to the Fc domain-coated surface was tested and subtracted from the GPVI-Fc readings. Binding was detected using HRP conjugated anti-His antibody. The average binding of all the nanobodies to BSA represents a non-specific binding control. Data represent mean values of three experiments±standard deviation.
The recombinant GPVI used for immunisation and testing consisted of the extracellular D1 and D2 domains fused with the Fc domain from IgG. Immunisation with GPVI-Fc yielded 54 distinct nanobody sequences. The Fc domain was used to test whether the nanobodies recognise this region. The 54 nanobodies were categorized into 33 distinct binding classes on the basis of their complementary determining loop (CDR) 3 regions, which is the region that confers ligand specificity. Nanobodies (1 μM) from each binding class were tested for their ability to recognise a recombinant GPVI-Fc coated surface (FIG. 1b). The degree of nanobody binding varied between classes and could be categorised into strong (>50%), moderate (>20%) and weak binders (<20%). Strong binders included Nb2, 21, 35 and 52. Moderate binders included Nb7, 18, 28 and 54. All other nanobodies were considered to be weak binders.

Assay [6] has the same target. Put plainly: solid-phase binding assay, displacement of GPVI-Fc (100 nM) from a collagen surface (legend of Fig. 4a; differs from the text).
The target is the same in assay [7]. Put plainly: SPR (Biacore T200), GPVI-Fc amine-coupled on CM5 chip, Nb2 in solution, 1:1 kinetic fit. As to the method: Surface plasmon resonance experiments were performed using a Biacore T200 instrument (GE Healthcare). GPVI was immobilised directly onto the CM5 chip using amine-coupling. Reference surfaces were blocked using 1M ethanolamine pH 8. All sensograms shown are double reference subtracted and at least two replicates were injected per cycle as well as experimental replicates of n=3. Experiments were performed at 25° C. with a flow rate of 30 μL/min in HBS-P running buffer (10 mM HEPES pH 7.4, 0.15 M NaCl, 0.005% v/v surfactant P20). Each concentration of Nb2 was run as follows; 120 sec injection, 900 sec dissociation. Kinetic analysis was performed using the Biacore T200 Evaluation software using a global fitting to a 1:1 binding model.
(SPR reads the build-up and loss of mass on a sensor chip optically.)

For assay [8], the target named is monomeric GPVI (GPVI-Fc cleaved with Factor Xa, Fc removed) (human) (UniProt Q9HCN6). Put plainly: SPR (Biacore T200), GPVI amine-coupled on CM5 chip, Nb2 in solution, 1:1 kinetic fit; immobilised monomeric GPVI, not GPVI-Fc.

Where only a bound is given, the exact number is not on record here.

On to “collagen (Horm collagen I, fibrillar) (ligand)”, for which, in assay [1], the fold increase in NFAT activity (luciferase reporter) amounted to 8.3 fold.

B1: Nanobody 35 (Nb35), with C-terminal HA and His tags (VHH)
VHH: QVQLQESGGGLVQAGGSLRLSCAASGVTFDSAAMAWFRQVPGKEREFVAVISTESGGRTDHADSVKGRFLISRDNARHMVYLQMNSLNPEDTAVYYCASSLLYCSASGCYANRDSYDYWGQGTQVTVSSAAAYPYDVPDYGSHHHHHH
As to B1, in assay [2], the “IC50, inhibition of washed platelet aggregation to CRP (10 µg/ml)” value (“IC50, inhibition … (10 µg/ml)” for short) turned out to be 1 nM and the “IC50, inhibition of washed platelet aggregation to collagen (5 µg/mL)” value (from here on “IC50, inhibition … (5 µg/mL)”) came out at 115 nM. Also, the IC50 in assay [3] was 39 nM.

B2: Nanobody 19 (Nb19) (VHH)
VHH: QVQLQESGGGLVQAGGSLRLSCAASGRTFSSDAMGWFRQAPGKEREFVAAIRWSGGSTYYADSVKGRFTISRGNAKNTVYLQMNSLKPEDTAVYYCASSLLNSYYPPDHTSYEYDYWGQGTQVTVSSAAAYPYDVPDYGSHHHHHH
With B2, the “inhibition of collagen-stimulated NFAT reporter activity (nanobody 100 nM, collagen 10 µg/ml)” value in assay [4] was over 40%. Moreover, the binding result in assay [5] was “binds”.

B3: Nanobody 22 (Nb22) (VHH)
VHH: QVQLQESGGGLVQAGGSLRLSCAPSGRTISSVDVGWFRQAPGKEREFVAHVTWSGGSTYAADSVKGRFTVSRDNAKNTVYLQMNSLKPEDTAVYYCAAALNGAFRDSWYPALWDEYDYWGQGTQVTVSSAAAYPYDVPDYGSHHHHHH
Take B3: the “inhibition of collagen-stimulated NFAT reporter activity (nanobody 100 nM, collagen 10 µg/ml)” value in assay [4] was over 40%. For the same molecule, the binding result in assay [5] is given as “binds”.

B4: Nanobody 5 (Nb5) (VHH)
VHH: QVQLQESGGGLVQPGGSLRLSCAASGFTLDSHTIGWFRQAPGKEREGVSGINSSDGSTYYADSVKGRFTISRDNAKNTVYLQMDSLKVEDTAVYYCATTPFSLRGPTWVTPDEFDYWGQGTQVTVSSAAAYPYDVPDYGSHHHHHH
For the molecule B4, the “inhibition of collagen-stimulated NFAT reporter activity (nanobody 100 nM, collagen 10 µg/ml)” value in assay [4] is over 40%.

B5: Nanobody 1 (Nb1) (VHH)
VHH: QVQLQESGGGLVQAGGSLRLSCASSGFTFSGYQLAWFRHVAPGKEREFVAAIRWSGGITWYADSVKGRFTISRDNAKNTMYLQMNSLKPEETAVYYCAASPLYSNNYLLPDNYDYWGQGTQVTVSSAAAYPYDVPDYGSHHHHHH
As for B5, in assay [4], the “inhibition of collagen-stimulated NFAT reporter activity (nanobody 100 nM, collagen 10 µg/ml)” value is over 40%.

B6: Nanobody 44 (Nb44) (VHH)
VHH: QVQLQESGGGLVQPGGALRLSCAASGFTLDYYAIGWFRQAPGKEREAVSCISSSDGSTYYADSVKGRFTISRDNAKNTVYLQMNSLKPEDTAVYYCATDPFYSDINCKSYEYAYWGQGTQVTVSSAAAYPYDVPDYGSHHHHHH
Regarding B6, in assay [4], the “inhibition of collagen-stimulated NFAT reporter activity (nanobody 100 nM, collagen 10 µg/ml)” value is over 40%. Further, the binding result in assay [5] was “binds”.

B7: Nanobody 33 (Nb33) (VHH)
VHH: QVQLQESGGGLVQAGDSLRLSCAASGRTFSSYVMGWFRQAPGKEREFVAAISWSGGSTYYADSVKGRFTISRDNAKNTVYLQMNSLKPEDTAVYYCAAADPPSFYSDYDWPRDHEYDYWGQGTQVTVSSAAAYPYDVPDYGSHHHHHH
For B7, in assay [4], the “inhibition of collagen-stimulated NFAT reporter activity (nanobody 100 nM, collagen 10 µg/ml)” value was over 40%. For the same molecule, the binding result in assay [5] was “binds”.

B8: Nanobody 21 (Nb21), with C-terminal HA and His tags (VHH)
VHH: QVQLQESGGGLVQPGGSLRLSCAASGRTFTRSIMGWFHQAPGKEREFLAGISWSGANTYYADSVRGRFTISRDNAKNTVSLQMNSLNPEDTAVYYCAADPSHPGSLISTRRSDYDSWGRGTQVTVSSAAAYPYDVPDYGSHHHHHH
On to B8, for which, in assay [2], the “IC50, inhibition … (10 µg/ml)” value came to 22 nM and the “IC50, inhibition … (5 µg/mL)” value stood at 85 nM. Also, in assay [4], the “inhibition of collagen-stimulated NFAT reporter activity (nanobody 100 nM, collagen 10 µg/ml)” value is over 80%. The IC50 in assay [6] came out at 62 nM. Also, the IC50 in assay [3] came out at 61 nM.

B9: Nanobody 2 (Nb2), with C-terminal HA and His tags (VHH)
VHH: QVQLQESGGGLVQPGGSLRLSCAAAGFTFDYYAIAWFRQAPGKEREGVSCISSSDGTTYYADSVKGRFTISKDNAKNTMYLQMNSLKPEDTAVYYCATSPLYSTNDRCISEDYDYWGQGTQVTVSSAAAYPYDVPDYGSHHHHHH
notes: Tagged form (detected with anti-His in ELISA and flow cytometry)
For B9, in assay [2], the “IC50, inhibition … (10 µg/ml)” value was 1 nM and the “IC50, inhibition … (5 µg/mL)” value came to 172 nM. In assay [7], the Kd was 0.7 nM. The molecule also yielded an inhibition of collagen-stimulated NFAT reporter activity (nanobody 100 nM, collagen 10 µg/ml) in assay [1] of over 80%. Further, the IC50 in assay [3] came out at 18 nM. Moreover, the Kd in assay [8] stood at 0.58 nM.

B10: Nanobody 25 (Nb25) (VHH)
VHH: QVQLQESGGGLVQPGGSLRLSCAASGFTLDNYAIGWFRQAPGKEREGVSCISSSDGRTYYADSVKGRFTISRDNAKNTMYLQMNSLKPEDTAVYYCATSPLYSDSDRCIWEEYDYWGQGTQVTVSSAAAYPYDVPDYGSHHHHHH
Turning to B10, the “inhibition of collagen-stimulated NFAT reporter activity (nanobody 100 nM, collagen 10 µg/ml)” value in assay [4] was over 40%. Also, in assay [5], the binding result was “binds”.

B11: Nanobody 28 (Nb28) (VHH)
VHH: QVQLQESGGGLVQAGDSLRLSCAASGTYSMGWFRQAPGKEREFVAAISWSGGRTNYADSVKGRFTISRDNAKNTVYLQMNSLKPEDTAVYYCSAAIYDNVSSRIGSYTYWGQGTQVTVSS
In the case of B11, in assay [5], the binding result is “binds”.

The term IC50 denotes the concentration that gives 50% inhibition. One may read the Kd as the free concentration of one partner at which half of the binding sites on the other are occupied at equilibrium, for simple one-to-one binding.

The values are drawn from patent US20240067721A1 (UNIVERSITY OF BIRMINGHAM, published 2024).
